Target: T1, 4.1R-CTD64 (last 64 amino acids of the C-terminal domain of human protein 4.1R) (human, 15N labelled)
T1 construct: protein 4.1R, human, last 64 amino acids (part of the C-terminal domain, CTD); Cloned with NdeI into a modified pET15b with a TEV site; also called 4.1R-CTD64 subdomain; 64 amino acids subdomain
T1 chain: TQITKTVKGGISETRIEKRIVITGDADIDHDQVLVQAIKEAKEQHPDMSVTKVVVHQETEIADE
Assay: NMR titration; 15N labelled 4.1R-CTD64 (0.1 mM, 100 mM Na2HPO4, 90% H2O/10% D2O) titrated with NuMA1 peptide up to 20:1, followed by 1H-15N HSQC, pH 4.9, 25°C; chemical shift perturbation analysis
Conditions: both partners purified

- binding result: binds
B1: NuMA1 interacting peptide (N1I), residues 1785-1810 of NuMA1 (peptide)
peptide: Ac-DSGRKTRSARRRTTQIINITMTKKLD-NH2
notes: also called NI1; non-phosphorylated NuMA peptide; source: synthetic peptide, bought: Caslo (Denmark)

Reference: article PMC2834593, “NMR characterisation of the minimal interacting regions of centrosomal proteins 4.1R and NuMA1: effect of phosphorylation” (BMC Biochemistry, 2010)
